The values that follow come from PMC8761493, “New insights into the phosphorylation of the threonine motif of the β1 integrin cytoplasmic domain” (Life Science Alliance, 2022).

In general, Kd refers to the equilibrium constant for the complex coming apart.

Changes are numbered by the printed parent chain. Numbers in names are those of the source. Non-standard residues stand in square brackets, D forms with d. No end group written: not given here. pT = C[C@@H](OP(=O)(O)O)[C@H](N)C(=O)O Bounds are passed on as bounds.

Assay [1] deals with talin-1 head domain (THD) (UniProt P26039). The assay can be described thus: Microscale thermophoresis (MST) affinity measurement. As to conditions: 200 nM Atto488-labeled β1-tail peptide, 20 mM Tris pH 7.5, 200 mM NaCl, 1 mM TCEP, 0.05% Tween-20. Format: binding. As for the experimental part: All MST measurements were performed on a Monolith NT.115 red-blue (Nanotemper) using premium-coated capillaries to reduce non-specific interaction of the proteins with the glass surface. Both interaction partners (ligand and receptor) were transferred into MST buffer (20 mM Tris, pH 7.5, 200 mM sodium chloride, 1 mM tris(2-carboxyethyl)phosphine [TCEP], 0.05% Tween-20) to avoid artifacts derived from buffer mismatches. […] The measurements were carried out at 20% light emitting diode power and 20% and 40% MST power. Data were analyzed using the MO Affinity Analysis Software (Nanotemper).
Background: Microscale thermophoresis detects binding through changes in fluorescence in a small temperature gradient.

For the next assay, the system named is endogenous SNX17. The experiment in a line: Peptide pull-down from whole cell lysate, Western blot. It is filed as binding. As to conditions: Western blot, n = 5. As for the experimental part:
(§1) Before use, peptides were immobilized on 25 μl Dynabeads MyOne Streptavidin C1 (10 mg/ml; Invitrogen) in Mammalian Protein Extraction Reagent (Thermo Fisher Scientific) containing protease inhibitors (cOmplete; Roche) and phosphatase inhibitors (Phosphatase Inhibitor Cocktail 2 and 3; Sigma-Aldrich) for 3 h at 4°C. Cell lysates were prepared with MPER containing protease and phosphatase inhibitors and 0.5 mg of supernatant was incubated with the peptide-coated beads at 4°C under constant rotation. For pull-downs with recombinant proteins, synthetic β1 integrin tail peptides were immobilized on 25 μl Dynabeads MyOne Streptavidin C1 (10 mg/ml; Invitrogen) for 3 h at 4°C, incubated with 2% BSA in Mammalian Protein Extraction Reagent (Thermo Scientific Scientific) for 30 min at 4°C to block unspecific binding before adding kindlin-2 or THD (conc 2.5 and 8.5 nM, respectively) and further incubation on a rotator for 2 h at 4°C. After washing the beads three times with lysis buffer, the proteins bound to the beads were eluted using Laemmli buffer, separated on a 10% SDS–PAGE, and analyzed by Western blotting.
(In western blotting, separated proteins are transferred to a membrane and probed.)

For another assay, the system named is endogenous kindlin-2. The assay is described as above. Format: binding. As to conditions: Western blot, n = 5. On the procedure: as §1
In another assay the target is T1, kindlin-2 (Homo sapiens, UniProt Q96AC1).
T1 sequence (Q96AC1 1-680): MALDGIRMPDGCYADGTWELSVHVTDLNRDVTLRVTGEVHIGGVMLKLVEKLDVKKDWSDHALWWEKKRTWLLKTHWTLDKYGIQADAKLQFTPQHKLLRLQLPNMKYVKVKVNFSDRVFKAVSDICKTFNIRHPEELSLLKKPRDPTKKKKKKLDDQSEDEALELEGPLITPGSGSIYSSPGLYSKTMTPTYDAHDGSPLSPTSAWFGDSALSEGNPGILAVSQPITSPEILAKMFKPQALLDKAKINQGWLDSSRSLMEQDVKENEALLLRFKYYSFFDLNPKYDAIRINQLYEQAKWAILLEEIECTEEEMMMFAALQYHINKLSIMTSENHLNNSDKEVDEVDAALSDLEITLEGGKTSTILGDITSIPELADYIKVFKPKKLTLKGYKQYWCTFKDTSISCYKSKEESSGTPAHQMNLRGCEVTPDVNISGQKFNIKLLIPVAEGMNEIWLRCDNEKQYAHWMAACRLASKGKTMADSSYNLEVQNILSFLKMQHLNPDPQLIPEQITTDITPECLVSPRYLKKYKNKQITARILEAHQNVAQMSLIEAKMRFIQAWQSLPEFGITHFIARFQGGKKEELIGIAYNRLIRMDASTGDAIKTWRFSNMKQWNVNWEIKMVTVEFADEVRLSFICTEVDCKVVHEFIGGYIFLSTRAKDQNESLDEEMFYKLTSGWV
The assay can be described thus: Microscale thermophoresis (MST) affinity measurement. Format: binding. As to conditions: 200 nM Atto488-labeled β1-tail peptide, 20 mM Tris pH 7.5, 200 mM NaCl, 1 mM TCEP, 0.05% Tween-20.

Assay [2] deals with anti-β1-pTpT integrin antibody (Thermo Fisher Scientific). The assay can be described thus: Integrin peptide ELISA (direct ELISA, immobilized tail peptides). It is filed as binding. As to conditions: antibody dilution range 1:500 to 1:10,000 (Fig 1D). As for the experimental part:
(§2) The plates were blocked with 200 μl PBS containing 3% BSA for 1 h at room temperature and then washed thrice with 200 μl PBS. Different dilutions of the anti–β1-pTpT antibodies (Thermo Fisher Scientific and Abcam) in 100 μl PBS supplemented with 3% BSA were incubated for 2 h at room temperature. After washing thrice with 200 μl PBS, 100 μl of anti-rabbit-IgG HRP-conjugate was added (1:10,000 in PBS supplemented with 3% BS) and incubated for 1 h at room temperature. The plates were washed thrice with 200 μl PBS, developed with 100 μl of ABTS substrate solution (1-Step ABTS; Thermo Fisher Scientific) before measuring absorbance at λ = 405 nm in a SpectraMax ABS Plus plate reader (Molecular Devices).

Assay [3] deals with anti-β1-pTpT integrin antibody (Abcam). The assay is described as above. As to conditions: antibody dilution range 1:500 to 1:10,000 (Fig 1E). Format: binding. As for the experimental part: as §2
The next assay has as its target FNIII7-10^ΔRGD. The assay can be described thus: AFM-based single-cell force spectroscopy (binding probability); single fibroblast on a concanavalin A-coated cantilever brought onto glass coated with 50 μg/ml FN fragment; contact force 200 pN, contact time ~300 ms, 37°C, 1 μM cilengitide.
The target in the next assay is FNIII7-10^RGD. The assay is described as above.
The target of assay [4] is T2, recombinant talin-1 head domain (THD).
T2 chain: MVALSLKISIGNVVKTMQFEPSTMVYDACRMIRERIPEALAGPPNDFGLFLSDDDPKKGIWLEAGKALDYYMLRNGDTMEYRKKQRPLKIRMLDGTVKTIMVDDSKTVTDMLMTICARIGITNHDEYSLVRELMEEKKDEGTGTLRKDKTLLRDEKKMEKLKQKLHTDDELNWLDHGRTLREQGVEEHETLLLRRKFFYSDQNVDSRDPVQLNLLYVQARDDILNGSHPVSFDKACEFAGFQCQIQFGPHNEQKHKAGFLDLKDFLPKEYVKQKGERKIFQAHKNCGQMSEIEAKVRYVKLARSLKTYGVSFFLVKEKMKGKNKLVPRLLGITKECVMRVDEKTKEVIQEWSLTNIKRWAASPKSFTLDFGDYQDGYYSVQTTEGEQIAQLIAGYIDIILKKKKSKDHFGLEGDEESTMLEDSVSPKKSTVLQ
The experiment in a line: MST.

The target in the next assay is T3, recombinant kindlin-2 (UniProt Q8CIB5 1-680).
T3 chain: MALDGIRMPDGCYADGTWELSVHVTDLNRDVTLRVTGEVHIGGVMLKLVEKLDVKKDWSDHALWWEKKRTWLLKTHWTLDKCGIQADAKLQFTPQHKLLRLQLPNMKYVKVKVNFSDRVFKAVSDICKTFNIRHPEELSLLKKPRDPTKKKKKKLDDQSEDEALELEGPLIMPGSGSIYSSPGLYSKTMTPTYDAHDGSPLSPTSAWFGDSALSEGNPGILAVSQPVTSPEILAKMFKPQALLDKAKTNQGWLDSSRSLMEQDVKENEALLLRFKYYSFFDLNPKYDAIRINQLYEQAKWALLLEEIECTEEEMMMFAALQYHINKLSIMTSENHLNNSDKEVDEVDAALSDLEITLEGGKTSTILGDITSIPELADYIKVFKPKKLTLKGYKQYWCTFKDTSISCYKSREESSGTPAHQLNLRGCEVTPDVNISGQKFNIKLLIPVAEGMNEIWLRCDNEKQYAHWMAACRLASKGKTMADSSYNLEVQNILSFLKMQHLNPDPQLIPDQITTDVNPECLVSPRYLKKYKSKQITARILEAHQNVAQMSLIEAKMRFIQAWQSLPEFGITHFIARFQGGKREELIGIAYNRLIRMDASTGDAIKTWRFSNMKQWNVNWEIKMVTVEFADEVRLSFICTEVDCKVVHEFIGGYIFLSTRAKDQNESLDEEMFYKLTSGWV
The assay can be described thus: MST.

Sequence of talin-1 head domain (THD) (P26039 whole entry, the tested form may be a part): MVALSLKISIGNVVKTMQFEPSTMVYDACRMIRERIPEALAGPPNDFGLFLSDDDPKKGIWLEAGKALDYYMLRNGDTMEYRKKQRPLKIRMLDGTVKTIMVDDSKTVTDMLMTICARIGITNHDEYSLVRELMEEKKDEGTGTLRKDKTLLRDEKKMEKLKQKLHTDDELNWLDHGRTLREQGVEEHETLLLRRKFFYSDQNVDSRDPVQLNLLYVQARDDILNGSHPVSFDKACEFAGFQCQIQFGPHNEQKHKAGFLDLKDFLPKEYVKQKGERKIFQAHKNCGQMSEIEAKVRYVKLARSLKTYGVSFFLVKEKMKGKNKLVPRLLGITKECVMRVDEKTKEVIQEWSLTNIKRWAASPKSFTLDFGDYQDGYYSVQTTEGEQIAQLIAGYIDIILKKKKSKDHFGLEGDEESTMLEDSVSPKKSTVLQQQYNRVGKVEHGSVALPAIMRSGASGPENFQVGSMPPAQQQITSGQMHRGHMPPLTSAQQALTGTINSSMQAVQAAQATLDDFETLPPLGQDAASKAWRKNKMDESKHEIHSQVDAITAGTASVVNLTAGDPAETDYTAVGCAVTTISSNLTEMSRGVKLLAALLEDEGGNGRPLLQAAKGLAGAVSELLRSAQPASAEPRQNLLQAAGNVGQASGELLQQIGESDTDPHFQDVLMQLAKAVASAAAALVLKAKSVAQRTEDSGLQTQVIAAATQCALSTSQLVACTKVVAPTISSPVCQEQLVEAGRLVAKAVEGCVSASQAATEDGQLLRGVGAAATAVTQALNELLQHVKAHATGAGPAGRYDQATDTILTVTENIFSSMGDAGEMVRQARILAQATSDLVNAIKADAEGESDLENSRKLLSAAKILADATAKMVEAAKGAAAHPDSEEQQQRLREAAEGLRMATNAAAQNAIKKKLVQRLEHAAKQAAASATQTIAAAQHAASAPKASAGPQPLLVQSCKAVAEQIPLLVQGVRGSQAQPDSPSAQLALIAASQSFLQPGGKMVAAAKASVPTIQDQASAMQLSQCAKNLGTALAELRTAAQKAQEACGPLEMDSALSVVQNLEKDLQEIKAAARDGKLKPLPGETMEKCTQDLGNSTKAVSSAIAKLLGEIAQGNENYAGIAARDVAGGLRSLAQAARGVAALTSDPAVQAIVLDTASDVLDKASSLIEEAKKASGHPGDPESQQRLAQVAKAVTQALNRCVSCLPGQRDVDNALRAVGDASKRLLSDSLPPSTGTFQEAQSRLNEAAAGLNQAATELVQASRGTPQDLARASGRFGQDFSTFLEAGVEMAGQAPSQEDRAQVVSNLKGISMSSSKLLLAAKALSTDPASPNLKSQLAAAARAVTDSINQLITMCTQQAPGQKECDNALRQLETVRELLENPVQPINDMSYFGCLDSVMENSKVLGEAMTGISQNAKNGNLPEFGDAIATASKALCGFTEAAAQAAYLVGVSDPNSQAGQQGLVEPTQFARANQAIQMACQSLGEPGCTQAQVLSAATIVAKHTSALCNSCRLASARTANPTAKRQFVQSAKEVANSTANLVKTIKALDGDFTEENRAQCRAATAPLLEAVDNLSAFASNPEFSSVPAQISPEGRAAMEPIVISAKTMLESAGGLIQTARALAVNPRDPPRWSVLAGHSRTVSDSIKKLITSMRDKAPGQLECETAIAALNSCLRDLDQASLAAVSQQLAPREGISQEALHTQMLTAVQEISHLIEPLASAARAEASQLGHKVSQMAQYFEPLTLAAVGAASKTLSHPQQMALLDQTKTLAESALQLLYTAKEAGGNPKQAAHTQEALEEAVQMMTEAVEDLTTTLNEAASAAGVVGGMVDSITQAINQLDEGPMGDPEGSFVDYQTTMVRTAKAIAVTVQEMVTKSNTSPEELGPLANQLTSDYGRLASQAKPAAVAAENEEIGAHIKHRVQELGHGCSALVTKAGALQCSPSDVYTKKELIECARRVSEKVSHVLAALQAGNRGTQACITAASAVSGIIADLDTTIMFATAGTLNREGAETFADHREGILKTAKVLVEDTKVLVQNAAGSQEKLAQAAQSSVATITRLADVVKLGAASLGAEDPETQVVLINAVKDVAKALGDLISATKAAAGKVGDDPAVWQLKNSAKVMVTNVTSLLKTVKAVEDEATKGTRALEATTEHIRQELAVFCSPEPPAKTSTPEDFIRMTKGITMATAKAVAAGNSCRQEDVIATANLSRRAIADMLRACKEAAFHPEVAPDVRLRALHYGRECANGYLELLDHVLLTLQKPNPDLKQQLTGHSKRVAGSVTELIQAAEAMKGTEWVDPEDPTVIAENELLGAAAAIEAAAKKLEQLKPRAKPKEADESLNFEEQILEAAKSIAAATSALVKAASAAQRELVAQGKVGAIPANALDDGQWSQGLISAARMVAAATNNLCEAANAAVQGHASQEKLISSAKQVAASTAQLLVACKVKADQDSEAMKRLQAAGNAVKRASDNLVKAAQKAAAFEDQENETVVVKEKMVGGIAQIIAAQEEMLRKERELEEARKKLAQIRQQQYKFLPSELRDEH

Molecule `CC[C@H](C)[C@H](NC(=O)[C@@H]1CCCN1C(=O)[C@H](CC(N)=O)NC(=O)[C@H](CCC(=O)O)NC(=O)CNC(=O)[C@@H](NC(=O)[C@H](CC(=O)O)NC(=O)[C@H](Cc1c[nH]c2ccccc12)NC(=O)[C@H](CCCCN)NC(=O)[C@H](C)NC(=O)[C@H](CC(N)=O)NC(=O)[C@H](CCSC)NC(=O)[C@H](CCCCN)NC(=O)[C@H](CCC(=O)O)NC(=O)[C@H](CCCCN)NC(=O)[C@H](CCC(=O)O)NC(=O)[C@H](Cc1ccccc1)NC(=O)[C@H](CCCCN)NC(=O)[C@H](C)NC(=O)[C@H](Cc1ccccc1)NC(=O)[C@H](CCC(=O)O)NC(=O)[C@H](CCCNC(=N)N)NC(=O)[C@H](CCCNC(=N)N)NC(=O)[C@H](CC(=O)O)NC(=O)[C@@H](N)Cc1c[nH]cn1)[C@@H](C)O)C(=O)N[C@@H](Cc1ccc(O)cc1)C(=O)N[C@@H](CCCCN)C(=O)N[C@@H](CO)C(=O)N[C@@H](C)C(=O)N[C@H](C(=O)N[C@H](C(=O)N[C@H](C(=O)N[C@H](C(=O)N[C@H](C(=O)N[C@@H](CC(N)=O)C(=O)N1CCC[C@H]1C(=O)N[C@@H](CCCCN)C(=O)N[C@@H](Cc1ccc(O)cc1)C(=O)N[C@@H](CCC(=O)O)C(=O)NCC(=O)N[C@@H](CCCCN)C(=O)O)C(C)C)C(C)C)[C@@H](C)O)[C@@H](C)O)C(C)C` [β1-WT] displayed an equilibrium dissociation constant (Kd) in assay [1] of 140 ± 20 µM.

For “EYEFEPDKVDTGAKGTKMAKNEKKFRNYTVHNIWESRKVAP-OH [scrambled, scrambled β1 integrin cytoplasmic tail peptide used as control, reference compound]”, the “SNX17 binding to the peptide (in words)” value with endogenous SNX17 is “lost”. Also, the “kindlin-2 binding to the peptide (in words)” value in the assay on endogenous kindlin-2 is recorded as “lost”.

Molecule “HDRREFAKFEKEKMNAKWDTGENPIAKSAVTTVVNPKYEGK [β1-Y783A]” had a Kd on kindlin-2 of 4.9 ± 0.7 µM.

In the case of “HDRREFAKFEKEKMNAKWDTGENPIYKSAVAAVVNPKYEGK [β1-TT/AA]”, the Kd came to 151 ± 1 µM at kindlin-2 and 100 ± 15 µM in assay [1].

Turning to “KWDTGENPIYKEAVpTpTFTVDFTFNKFNPKYEGK-OH [β3/β5-pTpT, chimeric β3/β5-pTpT peptide]”, the “binding of the anti-β1-pTpT antibody to the immobilized peptide (in words)” value in assay [2] and in assay [3] was “detected binding” throughout.

Take “β1-TT/AA integrin on β1-KO fibroblasts (from UniProt P09055 21-798) (receptor)”: the percent of binding probability experiments with more than one unbinding event with FNIII7-10^ΔRGD was less than 3%. This molecule also registered a percent of binding probability experiments with multiple unbinding events with FNIII7-10^RGD of 7.7%.

In turn, “β1-TT/DD integrin on β1-KO fibroblasts (from UniProt P09055 21-798) (receptor)” yielded a percent of binding probability experiments with more than one unbinding event with FNIII7-10^ΔRGD of less than 3%. This molecule also displayed a percent of binding probability experiments with multiple unbinding events with FNIII7-10^RGD of 3.8%.

In turn, “β1-TT/EE integrin on β1-KO fibroblasts (from UniProt P09055 21-798) (receptor)” displayed a percent of binding probability experiments with more than one unbinding event in the assay with FNIII7-10^ΔRGD of less than 3%. The same molecule had a percent of binding probability experiments with multiple unbinding events with FNIII7-10^RGD of 4.6%.

In turn, “β1-WT integrin on β1-KO fibroblasts (β1-class integrins) (from UniProt P09055 21-798) (receptor)” came in with a percent of binding probability experiments with more than one unbinding event with FNIII7-10^ΔRGD of less than 3%. The same molecule came in with a percent of binding probability experiments with multiple unbinding events in the assay with FNIII7-10^RGD of 32.3%.

B1: β1-pTpT peptide, Atto488-labeled (peptide)
peptide: HDRREFAKFEKEKMNAKWDTGENPIYKSAV[pT][pT]VVNPKYEGK
modifications: also: Atto488 label, position not given here
In the case of B1, the Kd in [4] worked out at 140 µM.

B2: β1-TT/DD peptide, Atto488-labeled (peptide)
chain: HDRREFAKFEKEKMNAKWDTGENPIYKSAVDDVVNPKYEGK
modifications: also: Atto488 label, position not given here
In the case of B2, in assay [4], the Kd came out at 170 µM.

B3: β1-TT/AA peptide, Atto488-labeled (peptide)
chain: B2 chain with D31A, D32A
modifications: also: Atto488 label, position not given here
Consider B3, for which the results for the Kd (in the assay with recombinant kindlin-2; in assay [4]) were 151 µM and 100 µM, respectively.

B4: β1-WT peptide, Atto488-labeled (peptide)
peptide: B2 chain with D31T, D32T
modifications: also: Atto488 label, position not given here
As to B4, in assay [4], the Kd stood at 140 µM.

B5: β1-Y783A peptide, Atto488-labeled (peptide)
peptide: B2 chain with Y26A, D31T, D32T
modifications: also: Atto488 label, position not given here
As for B5, the Kd with recombinant kindlin-2 is 4.9 µM.
